Measured values reported in patent US20210009686A1 (BEIJING XUANYI PHARMASCIENCES, published 2021).
Positions count from the first letter of the chain named.

B1: chimeric Ab 10-P12-A (antibody, V domains shown)
VH: EIQLQQSGAELVKPGTSVKISCKASGYSFTGYNMNWVKQSHGKSLEWIGNINPYYSNTNYNQRFKGKATLTVDKSSSTAYMQLNSLTSEDSAVYYCARHVRGNSFDYWGQGTTLTVSS
VL: DIVMTQSPSSLTVTAGERVTVGCKSRQSLFNSENQKNYLSWYQQKPGQPPKLLLYWTSTRESGVPERFTGSGSGTDFTLTISSVQAEDLAVYYCQNNYIYPFTFGSGTKLEIK
B2: chimeric Ab 7-A21-A (antibody, V domains shown)
VH: EVQLVESGGGLVKPGGSRKLSCAASGFTFSDYGMYWVRQAPEKGLEWLAYISSGSNTIYYADTVKGRFTISRDNAKNTLFLQMTSLRSEDTAMYYCARIARGNAMDYWGQGTSVTVSS
VL: DIVMTQSPSSLTVTAGEKVTMSCKSSQSLLNSGNQKNYLTWYQQKPGQPPKLLIYWASTRESGVPDRFTGSGSGTDFTLTISSVQAEDLAVYYCQNDYIYPLTFGAGTKLGLK
B3: chimeric Ab 1-H16-A (antibody, V domains shown)
VH: B2 VH with L48V, Y50F, N56S, Y60C
VL: B2 VL with K18R, Q35L, S83T, I99F, G111E
B4: chimeric Ab 7-G17-A (antibody, V domains shown)
VH: B2 VH with A24V, L48V, N56S, I70M
VL: B2 VL with A15P, L30F, K36R, T40A, I99F, G111E
B5: chimeric Ab 6-M11-A (antibody, V domains shown)
VH: B2 VH with L11S, Y35H, L48V, I58F, A61T, S85G, I99F, A100T, M105L
VL: B2 VL with I54L, A90T, D97A, I99S, G111E
B6: chimeric Ab 9-A13-B (antibody, V domains shown)
VH: B2 VH with T28S, Y35H, L48V, Y50H, N56S, V64M, I99F, A104T
VL: B2 VL with A90T, D97G, I99S, G111E
B7: chimeric Ab 1-B13-A (antibody, V domains shown)
VH: QVQLQQSGAELARPGASVKLSCKASGYTFTVWSMSWVKQRTGQGLQWIGEIYPKSGNTHYNEKFKGKATLTADKSSSTVYMQLSSLTSEDSAVYFCARAYYGNSFAYWGQGTLVTVPA
VL: B2 VL with S10P, V19A, K36R, T78S, Y98F, L102F, A106S, G111E, L112I
B8: chimeric Ab 2-D22-A (antibody, V domains shown)
VH: B2 VH with Y35H, L48I, N56S, T57S, I70M, N77K, M83T, S117T
VL: B2 VL with K36R, T40A, I99S, G111E
B9: chimeric Ab 7-B15-A (antibody, V domains shown)
VH: B2 VH with Y35H, L48I, Y50H, N56S, V64M, I99F, A100V, M105L
VL: B2 VL with S22N, A90T, D97G, I99S, G111E
B10: chimeric Ab 10-K12-A (antibody, V domains shown)
VH: B2 VH with Y35F, L48V, A49G, N56S, T57N
VL: B2 VL with V91I, I99F, G111E
B11: chimeric Ab 9-C6-A (antibody, V domains shown)
VH: B2 VH with Y35H, L48V, N56S, V64M, I99F, A100V, A104S
VL: B2 VL with M21L, G47R, S83N, A90T, D97A, I99S, G111E
B12: chimeric Ab 7-E20-A (antibody, V domains shown)
VH: B2 VH with Y35H, L48V, N56S, Y59H, A61V, V64M, I99F, A104T, M105L
VL: B2 VL with L30F, S32T, A90T, D97G, I99S, G111E

Target: T1, claudin 18.2 (CLDN18.2) (human)
T1 construct: also called Claudin 18 isotype 2; HEK293-CLDN18.2
Assay: in-cell ELISA, HEK293-CLDN18.2 cells
Procedure: In-cell ELISAs were performed as follows: 5×10³ HEK293-CLDN18.2 cells were seeded per well in a poly-L-lysine-coated 96-well plate. The plates were then incubated at 37° C. with 5% CO₂ for 2 days. Following incubation, culture media was removed from each well, and the HEK293-CLDN18.2 cells were blocked with 200 μl blocking buffer (3% BSA/PBS (pH 7.4)) per well for 1 hour at room temperature. Each hybridoma supernatant was incubated with cells at room temperature for 1 hour. Cells were gently washed 3 times with 200 μl PBS (pH 7.4) containing 1 mM Ca²⁺ and 0.5 mM Mg²⁺. Next, cells were incubated with 100 μl of HRP-conjugated goat anti-human IgG (H+L) antibody for 1 hour at room temperature. Following the incubation, the cells were washed three times with 200 μl PBS (pH 7.4) containing 1 mM Ca²⁺ and 0.5 mM Mg²⁺. 100 μl of 1-Step™ Ultra TMB-ELISA Substrate was added to each well, and the reactions were stopped by addition of 50 μl of stop solution. OD₄₅₀ was measured using CLARIOStar microplate reader. The in-cell ELISAs were repeated for each clone using HEK293-CLDN18.1 cells.
The in-cell ELISAs were performed as described above. […] Cells were washed, and analyzed by FACS.

Binder | EC50
B1 | 0.106 µg/mL
B2 | 0.23 µg/mL
B3 | 0.08 µg/mL
B4 | 0.098 µg/mL
B5 | 0.098 µg/mL
B6 | 0.15 µg/mL
B7 | 0.059 µg/mL
B8 | 0.065 µg/mL
B9 | 0.066 µg/mL
B10 | 0.05 µg/mL
B11 | 0.491 µg/mL
B12 | 0.198 µg/mL

Target: T1, claudin 18.2 (CLDN18.2)
Assay: FACS, HEK293-CLDN18.2 cells
Procedure: The interaction of 20 purified chimeric antibodies with CLDN18.2 was assessed by in-cell ELISAs and FACS using HEK293-CLDN18.2 cells. […] The FACS assays were performed as follows: Serial dilutions for each antibody clone shown in Tables 7 and 8 were prepared and stained with HEK293-CLDN18.2 cells on ice for 30 min, with final antibody concentrations of 10 g/ml, 3 g/ml, 1 g/ml, 0.3 μg/ml, 0.1 μg/ml, 0.03 μg/ml, 0.01 μg/ml, and 0 μg/ml. […] Cells were washed, and analyzed by FACS.

Binder | EC50
B1 | 0.018 µg/mL
B2 | 0.134 µg/mL
B3 | 0.101 µg/mL
B4 | 0.033 µg/mL
B5 | 0.026 µg/mL
B6 | 0.068 µg/mL
B7 | 0.036 µg/mL
B8 | 0.051 µg/mL
B9 | 0.032 µg/mL
B10 | 0.075 µg/mL
B11 | 0.032 µg/mL
B12 | 0.05 µg/mL
